Patent publication US20190010205A1

Molecular target: human prolactin receptor (hPRLR) expressed on mouse BaF3 cells (BaF3/hPRLR cells) (human) (UniProt P16471)
Experiment: cell-based or functional assay

human prolactin receptor (hPRLR) expressed on mouse BaF3 cells (BaF3/hPRLR cells) (human), sequence (P16471 25-622): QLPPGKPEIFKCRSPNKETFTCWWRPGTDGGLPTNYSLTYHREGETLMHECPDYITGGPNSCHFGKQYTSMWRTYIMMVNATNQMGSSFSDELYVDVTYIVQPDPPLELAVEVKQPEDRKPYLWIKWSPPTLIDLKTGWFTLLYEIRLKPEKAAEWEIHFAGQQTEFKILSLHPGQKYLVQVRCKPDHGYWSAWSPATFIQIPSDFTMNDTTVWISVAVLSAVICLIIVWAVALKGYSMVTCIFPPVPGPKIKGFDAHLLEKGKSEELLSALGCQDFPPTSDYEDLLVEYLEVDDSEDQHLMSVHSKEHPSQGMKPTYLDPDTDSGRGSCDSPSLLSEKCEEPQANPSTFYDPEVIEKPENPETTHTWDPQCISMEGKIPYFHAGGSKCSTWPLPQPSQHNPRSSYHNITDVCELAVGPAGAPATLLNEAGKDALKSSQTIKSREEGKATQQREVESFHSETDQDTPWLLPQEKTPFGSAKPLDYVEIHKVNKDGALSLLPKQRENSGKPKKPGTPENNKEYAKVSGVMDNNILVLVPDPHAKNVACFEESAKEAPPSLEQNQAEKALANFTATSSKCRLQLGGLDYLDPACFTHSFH

- EC50, growth of BaF3/hPRLR cells (positive control): 2.1 pM
Substance: human prolactin (hPRL, R&D System Inc.) (from UniProt P01236 29-227) (ligand)
